Drawing on patent US20040214329, this text covers activity (% recombination) for one substance.

Some results are limits rather than exact numbers.

In the data set the test system is phiC31 integrase (Streptomyces phage phiC31?). Put plainly: cell_activity. The note with it: E. coli, 1% L-arabinose, 32 C, 60-120 min, resuspended 4:1 in fresh LB.

“phiC31 attB/attP sites flanking expression cassette in pBAD.phiC31.RHB”: the activity (% recombination) was over 97.
